What is called Kd is a measure of binding affinity in units of concentration. The koff is a measure of how fast the partners let go of each other. A higher koff goes with fast dissociation. The kon is the rate constant with which the complex forms. A low value points to slow association.

Residue numbers refer to the chain shown, from its start. In names and notes the source's numbering stands.

The record followed here is patent US20120178682A1, “GB1 Peptidic Compounds and Methods for Making and Using the Same” (priority 2010, published 2012).

The labels stand for the following.
B1: E01 (recombinant, His-tagged) (designed binder)
chain: MKIEEHHHHHHHHHHGGSTYKLILNGKTLKGETTTEAVDVYDAFDVFFVYAASNFSDFDDWTYDDATKTFTVTEGGSDK
B2: E01-D39F/S35R (designed binder)
chain: B1 chain with S53R, D57F
B3: E01-D39F/V22L (designed binder)
chain: B1 chain with V40L, D57F
B4: E01-D39F/A34S (designed binder)
chain: B1 chain with A52S, D57F
B5: E01-D39F (designed binder)
chain: B1 chain with D57F
B6: E01-D39F/V31A (designed binder)
chain: B1 chain with V49A, D57F
B7: E01-D39F/D27E (designed binder)
chain: B1 chain with D45E, D57F
B8: E01-D39F/S35E (designed binder)
chain: B1 chain with S53E, D57F
B9: E01-D39F/F40I (designed binder)
chain: B1 chain with D57F, F58I
B10: E01-D39F/S35G (designed binder)
chain: B1 chain with S53G, D57F
B11: E01-D39F/S38G (designed binder)
chain: B1 chain with S56G, D57F

One test deals with D-VEGF, synthetic D-protein form of VEGF-A(8-109) (Homo sapiens (Human)) (UniProt P15692). As to the kind of experiment: SPR (ProteOn XPR36), D-VEGF immobilized.
Chain of D-VEGF, synthetic D-protein form of VEGF-A(8-109) (Homo sapiens (Human)) (P15692 214-315 limits assumed, form in doubt): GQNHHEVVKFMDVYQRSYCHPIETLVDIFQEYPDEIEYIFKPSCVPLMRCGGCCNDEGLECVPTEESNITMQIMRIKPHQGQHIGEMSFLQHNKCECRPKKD
In turn, B1 displayed a Kd of 13.4 nM, an off-rate constant (koff) of 0.00347 s⁻¹ and a kon of 260000 M⁻¹ s⁻¹.

For another test the target is unchanged. As to the kind of experiment: SPR (ProteOn XPR36), D-VEGF immobilized. This is another data set of the same source.
B1: the Kd was found to be 3.46 nM, the koff was 0.00117 s⁻¹ and the kon was 338000 M⁻¹ s⁻¹.
The matching figures for B2: 5.35 nM, 0.00183 s⁻¹ and 341000 M⁻¹ s⁻¹.
B3 yielded a dissociation constant Kd of 1.14 nM, a koff of 0.00082 s⁻¹ and a kon of 719000 M⁻¹ s⁻¹.
In the same order, the values of B4 are 4.49 nM, 0.00174 s⁻¹ and 387000 M⁻¹ s⁻¹.
As for B5, the Kd came to 3.48 nM, the off-rate (koff) was determined as 0.00132 s⁻¹ and the on-rate (kon) came to 380000 M⁻¹ s⁻¹.
In turn, B6 had a Kd of 2.99 nM, a dissociation rate constant (koff) of 0.00167 s⁻¹ and a kon of 558000 M⁻¹ s⁻¹.
B7 came in with a Kd of 3.1 nM, a koff of 0.00158 s⁻¹ and a kon of 511000 M⁻¹ s⁻¹.
In turn, B8 came in with a Kd of 4.52 nM, an off-rate (koff) of 0.00205 s⁻¹ and a kon of 454000 M⁻¹ s⁻¹.
The molecule B9 returned a Kd of 2.29 nM, a koff of 0.00138 s⁻¹ and a kon of 602000 M⁻¹ s⁻¹.
The matching figures for B10: 5.4 nM, 0.00193 s⁻¹ and 358000 M⁻¹ s⁻¹.
The matching figures for B11: 2.83 nM, 0.00131 s⁻¹ and 463000 M⁻¹ s⁻¹.
